Values belong to the binder of their own block, whether it stands above or below them.
Tests used:
[1] = biological target: T1, native human MET on living cells (human, UniProt P08581 25-1390); assay: cell-based or functional assay
[2] = biological target: T2, native mouse MET on living cells (mouse, UniProt P16056 25-1379); assay: cell-based or functional assay
[3] = biological target: T1, native human MET on living cells; assay: cell-based or functional assay; remark: listed apart in the source
[4] = biological target: T2, native mouse MET on living cells; assay: cell-based or functional assay; remark: listed apart in the source
[5] = biological target: T1, native human MET on living cells; assay: cell-based or functional assay; remark: listed apart in the source
[6] = biological target: T2, native mouse MET on living cells; assay: cell-based or functional assay; remark: listed apart in the source
[7] = biological target: T1, native human MET on living cells; assay: cell-based or functional assay; remark: listed apart in the source
[8] = biological target: T2, native mouse MET on living cells; assay: cell-based or functional assay; remark: listed apart in the source
[9] = biological target: T1, native human MET on living cells; assay: flow cytometry, A549 cells
Method in brief: (§1)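 Chimeric anti-MET antibodies were incubated with living cells expressing native MET, human on A549 and mouse on MLP29. Binding was detected by flow cytometry with phycoerythrin-conjugated anti-human IgG1. Commercial anti-MET antibodies with matching PE secondaries served as positive controls.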

[10] = biological target: T2, native mouse MET on living cells; assay: flow cytometry, MLP29 cells
Method in brief: as §1

[11] = biological target: human MET ECD mutant I (mutations 6, 7, 8) (human) (UniProt P08581); assay: ELISA, MET ECD in solid phase, mAb 0-50 nM
[12] = biological target: human MET ECD mutant J (mutations 6, 7) (human) (UniProt P08581); assay: ELISA, MET ECD in solid phase, mAb 0-50 nM
[13] = biological target: T3, human MET ECD (human, UniProt P08581 25-932); assay: ELISA, MET ECD in solid phase, mAb 0-20 nM
T3 construct: range 1-932; recombinant ECD made by the applicants; the stated range begins at residue 1, so it includes the signal peptide of the entry; also called hMET; hMET ECD
Method in brief: (§2)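 Binding is determined by ELISA in which coated MET extracellular domain captures llama-human chimeric IgG1 applied in solution across a concentration series. Protein A-purified material from transient mammalian expression is used.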

[14] = biological target: T4, mouse MET ECD (mouse, UniProt P16056 25-931); assay: ELISA, MET ECD in solid phase, mAb 0-20 nM
T4 construct: range 1-931; recombinant ECD made by the applicants; the stated range begins at residue 1; also called mMET; mMET ECD
Method in brief: as §2

[15] = biological target: T5, human MET-Fc (R&D Systems) (human, UniProt P08581 25-932); assay: competition ELISA, hMET-Fc in solid phase, competitor 0.3 nM biotinylated hHGF
T5 construct: extracellular domain; bought chimeric protein; also called hMET; not shown: Fc portion of human IgG1
Method in brief: (§3)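 First, HGF is biotinylated at the N-terminus via NHS-LC-biotin. Next, the coated chimeric receptor is incubated with this tracer plus antibody at rising concentrations, 0-120 nM. Finally, IC₅₀ and IMAX (maximal % competition reached at saturation) are derived.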

[16] = biological target: T6, mouse MET-Fc (R&D Systems) (mouse, UniProt P16056 25-929, limits assumed); assay: competition ELISA, mMET-Fc in solid phase, competitor 0.3 nM biotinylated mHGF
T6 construct: bought chimeric protein; also called mMET; not shown: Fc part
Method in brief: as §3

T1 sequence (P08581 25-1390): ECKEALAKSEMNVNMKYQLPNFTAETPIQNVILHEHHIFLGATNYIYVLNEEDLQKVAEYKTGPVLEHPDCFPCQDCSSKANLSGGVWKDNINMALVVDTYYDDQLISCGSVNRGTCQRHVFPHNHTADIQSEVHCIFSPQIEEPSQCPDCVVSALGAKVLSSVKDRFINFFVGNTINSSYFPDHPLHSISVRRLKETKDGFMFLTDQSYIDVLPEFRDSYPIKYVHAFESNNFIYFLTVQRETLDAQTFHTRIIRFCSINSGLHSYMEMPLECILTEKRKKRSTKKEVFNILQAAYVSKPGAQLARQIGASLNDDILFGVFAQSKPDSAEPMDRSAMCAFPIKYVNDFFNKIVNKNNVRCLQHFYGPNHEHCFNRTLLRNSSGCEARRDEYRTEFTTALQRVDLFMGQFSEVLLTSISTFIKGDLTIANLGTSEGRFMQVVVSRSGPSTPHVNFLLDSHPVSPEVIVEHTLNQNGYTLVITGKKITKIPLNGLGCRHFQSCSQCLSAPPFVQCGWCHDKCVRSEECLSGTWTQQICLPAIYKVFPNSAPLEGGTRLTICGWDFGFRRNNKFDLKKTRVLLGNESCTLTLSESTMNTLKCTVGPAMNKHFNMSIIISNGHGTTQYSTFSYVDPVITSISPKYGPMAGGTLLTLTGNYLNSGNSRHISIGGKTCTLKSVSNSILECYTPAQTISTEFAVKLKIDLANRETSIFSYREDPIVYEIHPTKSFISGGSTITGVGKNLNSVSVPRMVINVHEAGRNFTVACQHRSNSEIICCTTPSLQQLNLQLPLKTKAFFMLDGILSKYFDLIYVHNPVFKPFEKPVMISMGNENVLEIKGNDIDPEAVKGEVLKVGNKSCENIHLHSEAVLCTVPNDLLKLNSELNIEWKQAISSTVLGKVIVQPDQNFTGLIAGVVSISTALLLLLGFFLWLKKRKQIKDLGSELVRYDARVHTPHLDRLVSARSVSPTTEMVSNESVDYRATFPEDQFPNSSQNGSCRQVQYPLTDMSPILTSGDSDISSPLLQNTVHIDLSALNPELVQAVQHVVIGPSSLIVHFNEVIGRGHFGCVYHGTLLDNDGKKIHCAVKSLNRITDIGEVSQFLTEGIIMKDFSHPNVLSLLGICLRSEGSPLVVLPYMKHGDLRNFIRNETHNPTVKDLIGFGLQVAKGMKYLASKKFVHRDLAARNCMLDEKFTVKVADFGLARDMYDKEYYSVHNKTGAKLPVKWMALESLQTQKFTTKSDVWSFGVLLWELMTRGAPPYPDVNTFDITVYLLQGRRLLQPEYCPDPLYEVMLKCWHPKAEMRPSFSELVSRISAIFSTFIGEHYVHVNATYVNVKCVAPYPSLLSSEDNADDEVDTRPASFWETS
T5 sequence (P08581 25-932): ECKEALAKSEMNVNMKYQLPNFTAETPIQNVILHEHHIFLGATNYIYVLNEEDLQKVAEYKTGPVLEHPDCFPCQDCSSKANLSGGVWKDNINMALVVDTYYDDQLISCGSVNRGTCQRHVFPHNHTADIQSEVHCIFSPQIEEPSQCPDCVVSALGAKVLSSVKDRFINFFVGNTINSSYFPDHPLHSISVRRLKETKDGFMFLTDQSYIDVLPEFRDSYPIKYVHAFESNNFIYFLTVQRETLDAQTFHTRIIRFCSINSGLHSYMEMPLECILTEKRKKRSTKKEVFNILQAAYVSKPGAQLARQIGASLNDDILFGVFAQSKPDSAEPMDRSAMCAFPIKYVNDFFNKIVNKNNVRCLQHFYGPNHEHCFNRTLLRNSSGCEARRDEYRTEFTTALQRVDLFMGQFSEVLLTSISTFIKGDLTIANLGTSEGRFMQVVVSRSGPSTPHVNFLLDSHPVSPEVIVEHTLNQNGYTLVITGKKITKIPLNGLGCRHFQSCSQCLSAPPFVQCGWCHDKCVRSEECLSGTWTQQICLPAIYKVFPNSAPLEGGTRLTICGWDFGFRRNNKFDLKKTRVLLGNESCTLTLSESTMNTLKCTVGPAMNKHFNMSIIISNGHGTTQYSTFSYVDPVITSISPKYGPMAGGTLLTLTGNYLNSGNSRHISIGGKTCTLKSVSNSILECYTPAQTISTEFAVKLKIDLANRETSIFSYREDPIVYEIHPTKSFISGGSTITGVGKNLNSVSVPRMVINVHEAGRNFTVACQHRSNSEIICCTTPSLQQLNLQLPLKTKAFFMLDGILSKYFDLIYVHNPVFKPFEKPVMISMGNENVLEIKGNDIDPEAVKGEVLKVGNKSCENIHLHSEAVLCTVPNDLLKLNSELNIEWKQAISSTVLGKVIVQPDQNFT
T3 sequence (P08581 25-932 limits assumed, form in doubt): as the sequence (P08581 25-932) above

- phospho-MET ELISA EC50, A549 cells [1]: 0.41 nM
- phospho-MET ELISA EMAX (% HGF activity), A549 cells [1]: 95.7%
- phospho-MET ELISA EC50, MLP29 cells [2]: 0.37 nM
- phospho-MET ELISA EMAX (% HGF activity), MLP29 cells [2]: 97.8%
- scatter score 0-4, HPAF-II, 0.001 nM [3]: 0 score
- scatter score 0-4, HPAF-II, 0.004 nM [3]: 0 score
- scatter score 0-4, HPAF-II, 0.012 nM [3]: 1 score
- scatter score 0-4, HPAF-II, 0.037 nM [3]: 2 score
- scatter score 0-4, HPAF-II, 0.111 nM [3]: 3 score
- scatter score 0-4, HPAF-II, 0.333 nM [3]: 4 score
- scatter score 0-4, HPAF-II, 1.000 nM [3]: 4 score
- scatter score 0-4, HPAF-II, 3.000 nM [3]: 4 score
- scatter score 0-4, HPAF-II, 9.000 nM [3]: 4 score
- scatter score 0-4, MLP29, 0.001 nM [4]: 0 score
- scatter score 0-4, MLP29, 0.004 nM [4]: 0 score
- scatter score 0-4, MLP29, 0.012 nM [4]: 0 score
- scatter score 0-4, MLP29, 0.037 nM [4]: 1 score
- scatter score 0-4, MLP29, 0.111 nM [4]: 2 score
- scatter score 0-4, MLP29, 0.333 nM [4]: 4 score
- scatter score 0-4, MLP29, 1.000 nM [4]: 4 score
- scatter score 0-4, MLP29, 3.000 nM [4]: 4 score
- scatter score 0-4, MLP29, 9.000 nM [4]: 4 score
- branches per spheroid, LOC cells, 0.5 nM [7]: 13.7 branches
- branches per spheroid, LOC cells, 2.5 nM [7]: 19 branches
- branches per spheroid, LOC cells, 12.5 nM [7]: 22.3 branches
- branches per spheroid, MLP29 cells, 0.5 nM [8]: 24.7 branches
- branches per spheroid, MLP29 cells, 2.5 nM [8]: 34.3 branches
- branches per spheroid, MLP29 cells, 12.5 nM [8]: 29.3 branches
- EC50 [9]: 0.296 nM
- EMAX [9]: 117 % relative to control
- EC50 [10]: 0.214 nM
- EMAX [10]: 116 % relative to control
- % binding (EMAX) compared to WT MET [11]: 100 % WT MET ECD
- % binding (EMAX) compared to WT MET [12]: 91.2 % WT MET ECD
- EC50 [13]: 0.067 nM
- EMAX (OD450) [13]: 2.83 AU
- EC50 [14]: 0.057 nM
- EMAX (OD450) [14]: 2.98 AU
- IC50 [15]: 0.49 nM
- IMAX [15]: 63.2%
- IC50 [16]: 0.53 nM
- IMAX [16]: 62.9%
B1: 71G3 chimeric llama-human IgG1 mAb (antibody, V domains shown)
VH: QVQLVESGGGLVQPGGSLRVSCAASGFTFSTYYMSWVRQAPGKGLEWVSDIRTDGGTYYADSVKGRFTMSRDNAKNTLYLQMNSLKPEDTALYYCARTRIFPSGYDYWGQGTQVTVSS
VL: QAVVTQEPSLSVSPGGTVTLTCGLSSGSVTTSNYPGWFQQTPGQAPRTLIYNTNSRHSGVPSRFSGSISGNKAALTIMGAQPEDEADYYCSLYPGSTTVFGGGTHLTVL
notes: llama VH on human IgG1 CH1-CH2-CH3, llama VL on human lambda CL
- protection from staurosporine, viability EC50, MCF10A cells [5]: 5.04 nM
- protection from staurosporine, viability EMAX, MCF10A cells [5]: 65.2%
- protection from staurosporine, viability EC50, MLP29 cells [6]: 4.85 nM
- protection from staurosporine, viability EMAX, MLP29 cells [6]: 62.3%

- phospho-MET ELISA EC50, A549 cells [1]: 1.77 nM
- phospho-MET ELISA EMAX (% HGF activity), A549 cells [1]: 61.2%
- phospho-MET ELISA EC50, MLP29 cells [2]: 2.91 nM
- phospho-MET ELISA EMAX (% HGF activity), MLP29 cells [2]: 64.1%
- scatter score 0-4, HPAF-II, 0.001 nM [3]: 0 score
- scatter score 0-4, HPAF-II, 0.004 nM [3]: 0 score
- scatter score 0-4, HPAF-II, 0.012 nM [3]: 0 score
- scatter score 0-4, HPAF-II, 0.037 nM [3]: 0 score
- scatter score 0-4, HPAF-II, 0.111 nM [3]: 0 score
- scatter score 0-4, HPAF-II, 0.333 nM [3]: 0 score
- scatter score 0-4, HPAF-II, 1.000 nM [3]: 1 score
- scatter score 0-4, HPAF-II, 3.000 nM [3]: 2 score
- scatter score 0-4, HPAF-II, 9.000 nM [3]: 3 score
- scatter score 0-4, MLP29, 0.001 nM [4]: 0 score
- scatter score 0-4, MLP29, 0.004 nM [4]: 0 score
- scatter score 0-4, MLP29, 0.012 nM [4]: 0 score
- scatter score 0-4, MLP29, 0.037 nM [4]: 0 score
- scatter score 0-4, MLP29, 0.111 nM [4]: 0 score
- scatter score 0-4, MLP29, 0.333 nM [4]: 0 score
- scatter score 0-4, MLP29, 1.000 nM [4]: 1 score
- scatter score 0-4, MLP29, 3.000 nM [4]: 2 score
- scatter score 0-4, MLP29, 9.000 nM [4]: 3 score
- branches per spheroid, LOC cells, 0.5 nM [7]: 7.3 branches
- branches per spheroid, LOC cells, 2.5 nM [7]: 11.7 branches
- branches per spheroid, LOC cells, 12.5 nM [7]: 16.7 branches
- branches per spheroid, MLP29 cells, 0.5 nM [8]: 10.7 branches
- branches per spheroid, MLP29 cells, 2.5 nM [8]: 14.3 branches
- branches per spheroid, MLP29 cells, 12.5 nM [8]: 24.7 branches
- EC50 [9]: 2.35 nM
- EMAX [9]: 130 % relative to control
- EC50 [10]: 1.6 nM
- EMAX [10]: 124 % relative to control
- % binding (EMAX) compared to WT MET [11]: 100 % WT MET ECD
- % binding (EMAX) compared to WT MET [12]: 89 % WT MET ECD
- EC50 [13]: 0.09 nM
- EMAX (OD450) [13]: 2.67 AU
- EC50 [14]: 0.062 nM
- EMAX (OD450) [14]: 2.66 AU
- IC50 [15]: 1.86 nM
- IMAX [15]: 64.2%
- IC50 [16]: 2.01 nM
- IMAX [16]: 62.7%
B2: 76H10 chimeric llama-human IgG1 mAb (antibody, V domains shown)
VH: QLQLVESGGGLVQPGGSLRVSCTASGFTFNTYYMTWVRQAPGKGLEWVSDINSGGGTYYADSVKGRFTISRDNAKNTLYLQMNSLKPEDTALYYCVRVRIWPVGYDYWGQGTQVTVSS
VL: QAVVTQEPSLSVSPGGTVTLTCGLSSGSVTTSNYPGWFQQTPGQAPRTLIYNTNNRHSGVPSRFSGSISGNKAALTITGAQPEDEADYYCSLYTGSYTTVFGGGTHLTVL
notes: as for B1
- protection from staurosporine, viability EC50, MCF10A cells [5]: > 32 nM
- protection from staurosporine, viability EMAX, MCF10A cells [5]: 22.8%
- protection from staurosporine, viability EC50, MLP29 cells [6]: > 32 nM
- protection from staurosporine, viability EMAX, MLP29 cells [6]: 27.2%

Reference: patent US20210087281A1 (AGOMAB THERAPEUTICS, published 2021)
